In IntAct's records for PubMed 29039417:

B1: Protein PTHB1 (Homo sapiens), Q3SYG4 (parent)
chain: MSLFKARDWWSTILGDKEEFDQGCLCLANVDNSGNGQDKIIVGSFMGYLRIFSPHPAKTGDGAQAEDLLLEVDLRDPVLQVEVGKFVSGTEMLHLAVLHSRKLCVYSVSGTLGNVEHGNQCQMKLMYEHNLQRTACNMTYGSFGGVKGRDLICIQSMDGMLMVFEQESYAFGRFLPGFLLPGPLAYSSRTDSFLTVSSCQQVESYKYQVLAFATDADKRQETEQQKLGSGKRLVVDWTLNIGEQALDICIVSFNQSASSVFVLGERNFFCLKDNGQIRFMKKLDWSPSCFLPYCSVSEGTINTLIGNHNNMLHIYQDVTLKWATQLPHIPVAVRVGCLHDLKGVIVTLSDDGHLQCSYLGTDPSLFQAPNVQSRELNYDELDVEMKELQKIIKDVNKSQGVWPMTEREDDLNVSVVVSPNFDSVSQATDVEVGTDLVPSVTVKVTLQNRVILQKAKLSVYVQPPLELTCDQFTFEFMTPDLTRTVSFSVYLKRSYTPSELEGNAVVSYSRPTDRNPDGIPRVIQCKFRLPLKLICLPGQPSKTASHKITIDTNKSPVSLLSLFPGFASQSDDDQVNVMGFHFLGGARITVLASKTSQRYRIQSEQFEDLWLITNELILRLQEYFEKQGVKDFACSFSGSIPLQEYFELIDHHFELRINGEKLEELLSERAVQFRAIQRRLLARFKDKTPAPLQHLDTLLDGTYKQVIALADAVEENQGNLFQSFTRLKSATHLVILLIALWQKLSADQVAILEAAFLPLQEDTQELGWEETVDAAISHLLKTCLSKSSKEQALNLNSQLNIPKDTSQLKKHITLLCDRLSKGGRLCLSTDAAAPQTMVMPGGCTTIPESDLEERSVEQDSTELFTNHRHLTAETPRPEVSPLQGVSE
partner: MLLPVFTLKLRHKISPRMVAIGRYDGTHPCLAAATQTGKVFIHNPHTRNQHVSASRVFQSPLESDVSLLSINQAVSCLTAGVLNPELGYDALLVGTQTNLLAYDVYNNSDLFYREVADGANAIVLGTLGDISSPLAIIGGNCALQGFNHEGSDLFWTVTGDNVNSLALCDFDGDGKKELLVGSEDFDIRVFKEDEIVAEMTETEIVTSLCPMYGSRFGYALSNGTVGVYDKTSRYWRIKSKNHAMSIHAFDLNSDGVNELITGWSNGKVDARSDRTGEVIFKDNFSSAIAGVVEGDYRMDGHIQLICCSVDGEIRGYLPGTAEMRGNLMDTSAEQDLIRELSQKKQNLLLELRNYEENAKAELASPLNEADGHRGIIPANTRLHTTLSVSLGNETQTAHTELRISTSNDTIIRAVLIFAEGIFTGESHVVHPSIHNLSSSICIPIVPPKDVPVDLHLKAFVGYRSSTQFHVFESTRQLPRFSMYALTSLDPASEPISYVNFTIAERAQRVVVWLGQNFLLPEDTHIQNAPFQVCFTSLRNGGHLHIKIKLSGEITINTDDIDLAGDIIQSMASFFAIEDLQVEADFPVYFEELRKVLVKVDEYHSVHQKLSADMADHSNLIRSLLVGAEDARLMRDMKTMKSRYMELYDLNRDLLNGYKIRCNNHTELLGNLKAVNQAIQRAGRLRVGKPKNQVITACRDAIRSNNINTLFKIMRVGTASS

Variants of: B1
Conditions: with bbs2_human BBS2, Q9BXC9

| Variant | effect of a mutation on the interaction |
| --- | --- |
| S785A | disrupting interaction strength |
| S785E | with no effect |
| S785K | with no effect |
| L737A | with no effect |
| L737E | with no effect |
| L737K | with no effect |
| V734K | with no effect |
| V734E | with no effect |
| V734A | with no effect |
| C783A | with no effect |
| C783K | with no effect |
| C783E | with no effect |
| I751E | with no effect |
| I751A | with no effect |
| I751K | with no effect |
| E790K | with no effect |
| E790A | with no effect |
| L779K | with no effect |
| L779A | with no effect |
| L779E | with no effect |
| S745K | with no effect |
| S745E | with no effect |
| S745A | with no effect |
| L766E | with no effect |
| L766A | with no effect |
| L766K | with no effect |

| Variant | effect of a mutation on the interaction |
| --- | --- |
| A754K | with no effect |
| A754E | with no effect |
| F756E | with no effect |
| F756K | with no effect |
| F756A | with no effect |
| K789E | with no effect |
| K789A | with no effect |
| K781E | with no effect |
| K781A | with no effect |
| P758K | with no effect |
| P758A | with no effect |
| P758E | with no effect |
| L780K | with no effect |
| L780E | with no effect |
| L780A | with no effect |
| H732A | with no effect |
| H732K | with no effect |
| H732E | with no effect |
| H778K | with no effect |
| H778A | with no effect |
| H778E | with no effect |
| K743E | with no effect |
| K743A | with no effect |
| Q748E | with no effect |
| Q748L | disrupting interaction strength |
| Q748K | disrupting interaction strength |

| Variant | effect of a mutation on the interaction |
| --- | --- |
| Q748A | with no effect |
| E770K | with no effect |
| E770A | with no effect |
| Q791S | disrupting interaction strength |
| Q791A | with no effect |
| Q791E | with no effect |
| Q791L | disrupting interaction strength |
| Q791K | with no effect |
| L757K | with no effect |
| L757A | with no effect |
| L757E | with no effect |
| E769K | with no effect |
| E769A | with no effect |
| I738A | with no effect |
| I738K | with no effect |
| I738E | with no effect |
| S788E | with no effect |
| S788A | with no effect |
| S788K | with no effect |
| L759A | with no effect |
| L759E | with no effect |
| L759K | with no effect |
| L733A | with no effect |
| L733K | with no effect |
| L733E | with no effect |
| S777K | with no effect |

| Variant | effect of a mutation on the interaction |
| --- | --- |
| S777E | with no effect |
| S777A | with no effect |
| L784A | with no effect |
| L784K | with no effect |
| L784E | with no effect |
| A746E | with no effect |
| A746K | with no effect |
| L740E | with no effect |
| L740K | with no effect |
| L740A | with no effect |
| E765A | with no effect |
| E765K | with no effect |
| S787E | with no effect |
| S787A | with no effect |
| S787K | with no effect |
| D762A | with no effect |
| D762K | with no effect |
| D762E | with no effect |
| K786E | with no effect |
| K786A | with no effect |
| A730E | with no effect |
| A730K | with no effect |
| A774E | with no effect |
| A774K | with no effect |
| W768E | with no effect |
| W768A | with no effect |

| Variant | effect of a mutation on the interaction |
| --- | --- |
| W768K | with no effect |
| Q742K | with no effect |
| Q742A | with no effect |
| Q742E | with no effect |
| Q742L | disrupting interaction strength |
| Q742S | disrupting interaction strength |
| T763E | with no effect |
| T763K | with no effect |
| T763A | with no effect |
| A755E | with no effect |
| A755K | with no effect |
| E761K | with no effect |
| E761A | with no effect |
| I735E | with no effect |
| I735K | with no effect |
| I735A | with no effect |
| T771E | with no effect |
| T771K | with no effect |
| T771A | with no effect |
| T731A | with no effect |
| T731E | with no effect |
| T731K | with no effect |
| S729K | with no effect |
| A775E | with no effect |
| A775T | disrupting interaction strength |
| A775K | with no effect |

| Variant | effect of a mutation on the interaction |
| --- | --- |
| T782K | with no effect |
| T782E | with no effect |
| T782A | with no effect |
| W741S | disrupting interaction strength |
| W741E | with no effect |
| W741R | disrupting interaction strength |
| W741A | disrupting interaction strength |
| W741L | disrupting interaction strength |
| W741G | disrupting interaction strength |
| W741K | with no effect |
| L744E | with no effect |
| L744K | with no effect |
| L744A | with no effect |
| L744F | disrupting interaction strength |
| D747E | with no effect |
| D747A | with no effect |
| D747K | with no effect |
| D773A | with no effect |
| D773E | with no effect |
| D773K | with no effect |
| A750K | with no effect |
| A750E | with no effect |
| I776K | with no effect |
| I776E | with no effect |
| I776A | with no effect |
| V749E | with no effect |

| Variant | effect of a mutation on the interaction |
| --- | --- |
| V749A | with no effect |
| V749K | with no effect |
| V772E | with no effect |
| V772A | disrupting interaction strength |
| V772K | with no effect |
| L736A | with no effect |
| L736E | with no effect |
| L736K | with no effect |
| Q760E | with no effect |
| Q760K | with no effect |
| Q760A | with no effect |
| G767E | with no effect |
| G767K | with no effect |
| G767A | with no effect |
| E753A | with no effect |
| E753K | with no effect |
| Q764E | with no effect |
| Q764A | with no effect |
| Q764K | with no effect |
| A739K | with no effect |
| A739E | with no effect |
| L752E | with no effect |
| L752A | with no effect |
| L752K | with no effect |

Variants of: B1
Conditions: with bbs2_human BBS2, Q9BXC9
Remark: another data set of the same source

| Variant | effect of a mutation on the interaction |
| --- | --- |
| W741A | with no effect |
